US7795386B2, “Peptides comprising an isoDGR motif” (Molmed SpA, priority 2004, dated 2010)

What was measured:
[1] = target: T1, αvβ3 integrin (Homo sapiens, UniProt P05106+P06756); test: competitive binding of biotinylated NGR-TNF to αvβ3 coated plates; settings: FN-I5 incubated at 37° C. in DMEM
T1 construct: purchased Immunological Sciences
Protocol: Biotinylated NGR-TNF (4 μg/ml) was mixed with different amount of the indicated peptides and added to αvβ3 coated plates. Binding was detected as described in Materials and Methods. IC50 was determined by nonlinear regression analysis using the GraphPad Prism software. The kinetics of deamidation of FN-I5 was determined by plotting the inhibitory concentration (IC50) versus the incubation times. Bars represent the confidence intervals for each determined IC50.
Human αvβ3, αvβ5, α5β1 and α1β1 integrins solutions, 0.5-2 μg/ml in phosphate buffered saline with Ca^2+ and Mg^2+ (DPBS, Cambrex), were added to 96-well polyvinylchloride microtiter plates (50 μl/well) and left to incubate overnight at 4° C. All subsequent steps were carried out at room temperature. […] Bound peroxidase was detected by adding o-phenylendiammine chromogenic substrate.
(§1) Binding of biotinylated peptides (CNGRC (SEQ ID NO: 6)-TNF1-11, CARAC (SEQ ID NO: 36)-TNF1-11 and FN-I5) to purified integrins was studied using streptavidin-peroxidase conjugate complexes. Complexes were prepared by mixing various quantities (0.5-1 μg) of heat-treated biotinylated peptides in DPBS containing 3% BSA with 0.03 units of streptavidinperoxidase (binding capacity: 1 μg of biotin/unit of streptavidin-peroxidase) (final volume 15 μl). […] After washing with DPBS, bound peroxidase was detected by chromogenic reaction as described above. […]

[2] = system: L-M mouse fibroblasts; test: standard cytolytic assay with L-M mouse fibroblasts; assay type: cell-based; settings: for Cytolytic Activity: in vitro, L-M murine fibroblasts
Source text: Protein purity and identity were checked by SDS-PAGE, electrospray mass spectrometry and gel-filtration chromatography.
The cDNA coding for DGR-TNF (mouse TNF fused with the C-terminus of CDGRCG (SEQ ID NO: 24)) was obtained by PCR on NGR-TNF plasmid, using the following primers: 5′ […] 3′ (SEQ ID NO: 43) (5′ primer); 5′ […] ′3 (SEQ ID NO: 44) (3′ primer). Both primers were designed to allow the directional cloning into a pET101/D-TOPO plasmid expression kit (Invitrogen). The underlined sequence in 5′ primer contains the sequence necessary to enable the directional cloning and the initial translation codon whereas the 3′ primer contains the stop codon (underlined). The PCR reaction and the cloning procedure were performed as recommended by the manufacturer's instruction. […] The column was washed extensively 100 mM Tris-HCl buffer containing pH 8.0, loaded with DGR-TNF crude extract, diluted in 20 mM Tris-HCl buffer conatining 2 mM EDTA pH 8.0, and desorbed by elution with 7 M urea, 100 mM Tris-HCl, pH 8.0. DGR-TNF was then refolded as described (1). Briefly, the denatured products were dialyzed against 2.33 M urea, 100 mM Tris-HCl, pH 8.0 at 4° C. (140 min), followed by 1.55 M urea, 100 mM Tris-HCl, pH 8.0 (140 min), and 1 M urea, 100 mM Tris-HCl, pH 8 (140 min). Finally the products were dialyzed against 100 mM Tris-HCl, pH 8.0 (48 h). The products were centrifuged at 13000×g (10 min, 4° C.) and concentrated by ultra-filtration through a 10 KDa cut-off filter. All solutions used in the purification and refolding steps were prepared with sterile and endotoxin-free water (S.A.L.F. Laboratorio Farmacologico SpA, Bergamo, Italy). Protein concentration was measured using the BCA Protein Assay Reagent (Pierce, Rockford, Ill.). Protein purity and identity were checked by SDS-PAGE, electrospray mass spectrometry (ESI-MS) and analytical gel-filtration chromatography.

[3] = target: T1, αvβ3 integrin; test: direct ELISA binding to purified integrin adsorbed on microtiterplates
Protocol: (A) Binding of heat-treated CNGRC-TNF and TNF to solid phases coated with purified human integrins. Single concentration (5 μg/ml) or various concentrations (inset) of CNGRC-TNF and TNF were used. Binding was detected with anti-TNF antibodies as described in Materials and Methods.
(B) Binding of biotinylated CNGRC-TNF1-11, CARAC-TNF1-11 and FN-I5 (complexed with streptavidin-peroxidase) to purified human integrins. Binding was detected by chromogenic reaction with o-phenylendiammine.
Human αvβ3, αvβ5, α5β1 and α1β1 integrins solutions, 0.5-2 μg/ml in phosphate buffered saline with Ca^2+ and Mg^2+ (DPBS, Cambrex), were added to 96-well polyvinylchloride microtiter plates (50 μl/well) and left to incubate overnight at 4° C. […] Bound peroxidase was detected by adding o-phenylendiammine chromogenic substrate.
as §1

[4] = system: EA.hy926 cells; test: EA.hy926 cell adhesion assay on coated microtiter plates; assay type: cell-based, human; settings: for EA.hy926 cell adhesion to coated product after heat-treatment: 0.1 M ammonium bicarbonate buffer, pH 8.5, 16 h at 37° C.
Protocol: Adhesion of EA.hy926 cells to microtiter plates coated with various peptides and proteins before and after accelerated aging. Accelerated aging was performed by peptide incubation in 0.1 M ammonium bicarbonate buffer, pH 8.5, for 16 h at 37° C. (“heat-treatment”). Adhesion to: recombinant FN-I4-5 or control protein (FN-I4-5 (SGS)) (A), synthetic FN-I5 (B), recombinant CNGRC-TNF, CNGRC-TNF1-11 and control CARAC-TNF1-11 peptide (C), CDGRC-TNF (D). Heat-treated (37° C.) and untreated (−20° C.) products were adsorbed onto the plastic surface of microtiter wells (overnight at 4° C.). Microphotograph of wells coated with 30 μg/ml of heat-treated FN-I5 or BSA (B, right) or with 10 μg/ml of recombinant CNGRC-TNF or CDGRC-TNF (C, right), ×200. Cell adhesion assay was carried out as described in Materials and Methods. The TNF fusion constructs, including the TNF1-11 fusion constructs, were made as described Materials and Methods, and include a “G” linker.
(§2) Untreated and “heat treated” fibronectin fragments, peptides and peptide-TNF conjugates were diluted at the desired concentration with 150 mM sodium chloride, 50 mM sodium phosphate, pH 7.3, and added to 96-well polyvinyl chloride microtiter plates (Falcon, Becton Dickinson). After overnight incubation at 4° C., the plates were washed, seeded with EA.hy926 cell in DMEM containing 0.1% BSA (40000 cells/well) and left to incubate for 2-3 h at 37° C., 5% CO2. Adherent cells were fixed and stained with crystal violet as described (Curnis et al., 2005).

[5] = isoaspartate (isoAsp) quantification, ISOQUANT enzymatic assay; settings: for isoAsp (%): pmol of isoAsp/pmol of peptide (%)
Source text: IsoAsp content in untreated and “heat treated” CNGRC (SEQ ID NO: 6)—TNF and peptides was quantified by using the ISOQUANT™ Isoaspartate Detection Kit (Promega).

[6] = bolus, humans (Fraker et al., 1995); cited from earlier work
[7] = system: EA.hy926 cells; test: PIMT treatment of coated products followed by EA.hy926 cell adhesion assay; assay type: cell-based, human; settings: PIMT 16 h at 37° C.
Protocol: Microtiterplates were coated with heat-treated FN-I5 or NGR-TNF (A), or with natural FN-30 KDa, FN-45 KDa or retronectin (RN) (CNGRC disclosed as SEQ ID NO: 6) (B). The adsorbed proteins were then treated with PIMT enzyme for 16 h at 37° C. After incubation the enzyme solution was removed by washing. EA.hy926 cell adhesion assay was then performed as described in Materials and Methods.
The effect of protei nL-isoAsp/D-As pO-methyltransferase (PIMT) on the pro-adhesive properties of different fragments was investigated as follows: microtiter plates were coated with various products as described above and washed with 0.9% sodium chloride. Each well was then filled with 45 μl of a solution containing 0.02 mM S-adenosyl-L-methionine in 150 mM sodium chloride, 50 mM sodium phosphate buffer, pH 6.8, and 5 μl of PIMT solution (from the Isoquant Isoaspartate Detection kit, Promega) (final volume 50 μl/well) and incubated at 37° C. for 16 h. After incubation the plates were washed with 0.9% sodium chloride and cell adhesion assay was performed as described above.

[8] = system: EA.hy926 cell adhesion to vitronectin; test: inhibition of EA.hy926 cell adhesion to vitronectin; assay type: cell-based, human; settings: vitronectin 3 μg/ml coated
Protocol: (A) Inhibition of EA.hy926 cell adhesion to vitronectin by heat-treated FN-I5. Vitronectin (3 μg/ml) was adsorbed to microtiter plate and cell adhesion assay was performed as described in Materials and Methods.
as §2

[9] = system: RMA lymphoma; test: RMA lymphoma tumor growth in mice, heat-treated FN-I5; assay type: in vivo, mouse; settings: 200 μg i.p. daily from day 4; p=0.0003 at day 14
Protocol: (B) Anti-tumor effects of repeated administration of “heat-treated” FN-I5 to RMA-tumor bearing mice. Animals (5/group) were treated with 200 μg of “heat-treated” FN-I5 (i.p.) at the indicated times (arrows) starting 4 days after tumor implantation. * p=0.0003 at day 14, statistical analysis by two tailed t-test.
Studies on animal models were approved by the Ethical Committee of the San Raffaele H Scientific Institute and performed according to the prescribed guidelines. C57BL/6N mice (Charles River Laboratories, Calco, Italy) weighing 16-18 g were challenged with subcutaneous injection in the left flank of 7×10^4 RMA living cells; 4 days later, the mice were treated daily with 200 μg of heat-treated FN-I5 (100 μl) in 0.9% sodium chloride (i.p.). Tumor growth was monitored by measuring the tumors with calipers as previously described (Gasparri et al., 1999). Animals were sacrificed before the tumors reached 1.0-1.3 cm in diameter. Tumor sizes are shown as mean±SE (5 animals/group).

T1 sequence (P06756 31-889 limits assumed): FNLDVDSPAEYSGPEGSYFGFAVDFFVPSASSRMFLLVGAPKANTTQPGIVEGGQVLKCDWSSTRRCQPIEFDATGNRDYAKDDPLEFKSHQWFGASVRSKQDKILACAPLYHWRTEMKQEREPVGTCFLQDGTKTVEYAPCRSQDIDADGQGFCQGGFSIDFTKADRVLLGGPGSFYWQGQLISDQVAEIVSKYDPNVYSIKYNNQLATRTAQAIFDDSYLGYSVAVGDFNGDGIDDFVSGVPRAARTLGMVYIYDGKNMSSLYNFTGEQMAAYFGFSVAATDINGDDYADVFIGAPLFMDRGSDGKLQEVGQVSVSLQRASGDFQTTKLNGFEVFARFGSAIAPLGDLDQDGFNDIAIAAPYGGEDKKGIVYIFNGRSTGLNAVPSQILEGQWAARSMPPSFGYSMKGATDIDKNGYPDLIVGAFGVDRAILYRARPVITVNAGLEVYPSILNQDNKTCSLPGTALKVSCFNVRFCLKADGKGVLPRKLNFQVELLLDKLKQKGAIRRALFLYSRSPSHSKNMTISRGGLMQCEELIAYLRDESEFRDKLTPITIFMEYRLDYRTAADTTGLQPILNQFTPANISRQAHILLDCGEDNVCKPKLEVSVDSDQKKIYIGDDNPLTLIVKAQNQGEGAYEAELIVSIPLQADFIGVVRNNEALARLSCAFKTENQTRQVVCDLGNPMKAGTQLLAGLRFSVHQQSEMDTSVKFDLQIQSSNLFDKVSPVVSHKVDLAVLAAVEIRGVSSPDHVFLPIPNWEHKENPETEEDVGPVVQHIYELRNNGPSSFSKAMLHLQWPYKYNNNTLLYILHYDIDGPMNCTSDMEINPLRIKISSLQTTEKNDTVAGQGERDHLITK
T1 sequence (P06756 891-1048 partner limits assumed): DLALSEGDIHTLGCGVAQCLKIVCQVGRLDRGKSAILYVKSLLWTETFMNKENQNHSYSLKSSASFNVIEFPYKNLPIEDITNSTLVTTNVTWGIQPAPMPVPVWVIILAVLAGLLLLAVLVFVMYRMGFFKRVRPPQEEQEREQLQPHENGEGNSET
T1 sequence (P05106 27-788): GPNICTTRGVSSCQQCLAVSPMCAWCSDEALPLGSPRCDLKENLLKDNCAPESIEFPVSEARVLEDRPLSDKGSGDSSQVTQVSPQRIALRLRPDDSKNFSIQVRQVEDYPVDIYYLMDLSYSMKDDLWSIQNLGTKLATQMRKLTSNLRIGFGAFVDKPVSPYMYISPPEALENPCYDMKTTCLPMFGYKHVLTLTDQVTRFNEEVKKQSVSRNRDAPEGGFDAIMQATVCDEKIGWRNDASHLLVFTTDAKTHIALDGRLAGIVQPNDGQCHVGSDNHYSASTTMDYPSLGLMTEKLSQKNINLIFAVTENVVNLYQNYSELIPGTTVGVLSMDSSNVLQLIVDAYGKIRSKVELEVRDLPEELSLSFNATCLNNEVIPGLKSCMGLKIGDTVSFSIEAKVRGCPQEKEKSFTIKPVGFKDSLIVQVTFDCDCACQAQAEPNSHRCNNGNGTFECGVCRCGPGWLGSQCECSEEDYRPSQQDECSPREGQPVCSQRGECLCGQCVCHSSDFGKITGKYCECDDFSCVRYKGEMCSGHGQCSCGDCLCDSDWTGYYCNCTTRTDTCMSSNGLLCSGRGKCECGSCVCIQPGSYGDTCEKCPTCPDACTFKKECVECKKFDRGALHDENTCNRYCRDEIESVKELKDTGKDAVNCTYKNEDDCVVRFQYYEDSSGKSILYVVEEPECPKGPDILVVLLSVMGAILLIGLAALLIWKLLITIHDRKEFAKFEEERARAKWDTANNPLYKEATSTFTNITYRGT

FN-I5: synthetic peptide, 5th type I repeat of human fibronectin, residues 230-274, additional N-terminal acetyl-glycine, Glu250 in place of Asp250
incubation time to maximal competitive binding activity [1]: 24 to 48 h

TNF: murine TNF by recombinant DNA technology; in b159 bolus TNF in humans (literature) [reference compound]
Cytolytic Activity [2]: 8 × 10^8 U/mg | binding to αvβ3 ([3]; heat-treated products, in words): No binding | EA.hy926 cell adhesion to coated product after heat-treatment [4]: No adhesion | EA.hy926 cell adhesion to coated product ([4]; before heat treatment): No adhesion | isoAsp (%) [5]: 2.6% | maximum tolerated dose [6]: 218-410 μg/m^2

heat-treated FN-I5: FN-I5 incubated in 0.1 M ammonium bicarbonate buffer, pH 8.5, 16 h at 37° C. (deamidated)
effect of PIMT on pro-adhesive activity [7]: almost completely inhibited | inhibition of adhesion of EA.hy926 cells to vitronectin [8]: could inhibit | tumor growth in RMA lymphoma bearing mice [9]: significantly inhibited tumor growth

B1: Cys-Asn-Gly-Arg-Cys-Gly-(SEQ ID NO: 7)TNF (protein)
chain: CNGRCGLRSSSQNSSDKPVAHVVANHQVEEQLEWLSQRANALLANGMDLKDNQLVVPADGLYLVYSQVLFKGQGCPDYVLLTHTVSRFAISYQEKVNLLSAVKSPCPKDTPEGAELKPWYEPIYLGGVFQLEKGDQLSAEVNLPKYLDFAESGQVYFGVIAL
notes: murine TNF fused with the C-terminus of CNGRCG, recombinant
cytolytic activity after heat treatment ([2]; 0.1 M ammonium bicarbonate buffer, pH 8.5, 37° C., 4 h of treatment): no loss of cytolytic activity | Cytolytic Activity [2]: 2.96 (±0.56)×10^8 U/mg | Cytolytic Activity ([2]; listed as NGR-TNF): 2.9 × 10^8 U/mg | binding to αvβ3 before heat treatment ([3]; untreated, data not shown): to a lower extent | EA.hy926 cell adhesion to coated product after heat-treatment [4]: increased cell adhesion | isoAsp content after heat treatment ([5]; 0.1 M ammonium bicarbonate pH 8.5, 16 h, 37° C.): > 0.5 mol isoAsp/mol CNGRC-TNF subunit | isoAsp (%) [5]: 29.8%

B2: heat-treated CNGRC-TNF: CNGRC-TNF incubated in 0.1 M ammonium bicarbonate buffer, pH 8.5, 16 h at 37° C. (protein)
chain: B1 chain
effect of PIMT on pro-adhesive activity [7]: almost completely inhibited
